{"source": "paper PMC7375243", "about": "“Structural Basis of Human Helicase DDX21 in RNA Binding, Unwinding, and Antiviral Signal Activation” (Advanced Science, 2020)", "binders": {"B1": {"name": "FAM-U15 (ssRNA)", "RNA": "UUUUUUUUUUUUUUU"}}, "details_in_all_cases": "protein: recombinant; tags: N-terminal His-SUMO, removed by ULP1; label: FAM; single strand", "key": {"[1]": {"biological_target": "T1, DDX21 core D339H/E340G (DEV mutant) (human, UniProt Q9NR30 188-563, D339H;E340G)", "T1 sequence": "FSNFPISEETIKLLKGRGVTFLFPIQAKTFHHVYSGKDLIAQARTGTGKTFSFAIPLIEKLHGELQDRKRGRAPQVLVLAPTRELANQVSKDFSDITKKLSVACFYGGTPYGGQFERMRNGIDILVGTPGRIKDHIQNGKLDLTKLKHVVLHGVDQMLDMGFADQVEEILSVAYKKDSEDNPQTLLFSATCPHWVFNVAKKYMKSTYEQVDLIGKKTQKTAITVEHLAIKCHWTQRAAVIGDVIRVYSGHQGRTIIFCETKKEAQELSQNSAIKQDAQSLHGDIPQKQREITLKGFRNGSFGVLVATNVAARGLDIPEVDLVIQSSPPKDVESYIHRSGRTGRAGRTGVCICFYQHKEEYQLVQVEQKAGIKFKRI", "experiment": "UV crosslinking; highest activity of all; MST: 50 mM Tris pH 7.5, 50 mM KCl, 2 mM MgCl2, 1 mM TCEP, 0.01% NP-40, 0.05 mg/mL BSA, 2 mM AMPPNP, 50 nM FAM-RNA; temperature not given; crosslinking buffer not in material"}, "DDX21 core S375L/A376E": {"biological_target": "T2, DDX21 core S375L/A376E (human, UniProt Q9NR30 188-563, S375L;A376E)", "T2 sequence": "T1 sequence with H152D, G153E, S188L, A189E", "experiment": "UV crosslinking; about half of activity; MST: 50 mM Tris pH 7.5, 50 mM KCl, 2 mM MgCl2, 1 mM TCEP, 0.01% NP-40, 0.05 mg/mL BSA, 2 mM AMPPNP, 50 nM FAM-RNA; temperature not given; crosslinking buffer not in material"}, "DDX21 core T315A": {"biological_target": "T3, DDX21 core T315A (human, UniProt Q9NR30 188-563, T315A)", "T3 sequence": "T1 sequence with T128A, H152D, G153E", "experiment": "UV crosslinking; negligibly affected; MST: 50 mM Tris pH 7.5, 50 mM KCl, 2 mM MgCl2, 1 mM TCEP, 0.01% NP-40, 0.05 mg/mL BSA, 2 mM AMPPNP, 50 nM FAM-RNA; temperature not given; crosslinking buffer not in material"}, "DDX21 core T494A": {"biological_target": "T4, DDX21 core T494A (human, UniProt Q9NR30 188-563, T494A)", "T4 sequence": "T1 sequence with H152D, G153E, T307A", "experiment": "UV crosslinking; negligibly affected; MST: 50 mM Tris pH 7.5, 50 mM KCl, 2 mM MgCl2, 1 mM TCEP, 0.01% NP-40, 0.05 mg/mL BSA, 2 mM AMPPNP, 50 nM FAM-RNA; temperature not given; crosslinking buffer not in material"}, "DDX21 core del-loop": {"biological_target": "T5, DDX21 core del-loop (human, UniProt Q9NR30 188-563, del401-405)", "T5 sequence": "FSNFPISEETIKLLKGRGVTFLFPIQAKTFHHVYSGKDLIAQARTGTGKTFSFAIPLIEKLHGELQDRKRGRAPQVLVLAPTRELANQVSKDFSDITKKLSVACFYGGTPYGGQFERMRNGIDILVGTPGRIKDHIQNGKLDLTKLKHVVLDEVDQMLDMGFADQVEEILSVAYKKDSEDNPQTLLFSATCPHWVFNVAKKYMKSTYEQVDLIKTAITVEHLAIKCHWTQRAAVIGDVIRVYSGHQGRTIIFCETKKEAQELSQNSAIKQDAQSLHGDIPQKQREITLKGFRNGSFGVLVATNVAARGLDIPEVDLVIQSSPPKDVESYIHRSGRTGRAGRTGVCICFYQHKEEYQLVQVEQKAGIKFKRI", "experiment": "UV crosslinking; retains more than half; MST: 50 mM Tris pH 7.5, 50 mM KCl, 2 mM MgCl2, 1 mM TCEP, 0.01% NP-40, 0.05 mg/mL BSA, 2 mM AMPPNP, 50 nM FAM-RNA; temperature not given; crosslinking buffer not in material"}}, "note": "Residue numbers refer to the chain shown, from its start.", "data": [{"binder": "B1", "values": [{"measurement": "binding result", "setting": "[1]", "value": "binds"}, {"measurement": "binding signal", "setting": "DDX21 core S375L/A376E", "value": "~50 % of WT"}, {"measurement": "binding result", "setting": "DDX21 core T315A", "value": "binds"}, {"measurement": "binding result", "setting": "DDX21 core T494A", "value": "binds"}, {"measurement": "binding signal", "setting": "DDX21 core del-loop", "value": "> 50 % of WT"}]}]}
